Paper PMC7077807

Target: Synaptotagmin II, P29101
Assay: BLI

Sequence of Synaptotagmin II, P29101 (P29101 40-60): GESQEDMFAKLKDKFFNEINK

B1: BoNT/B HC HC, P10844 (protein)
chain: SEILNNIILNLRYKDNNLIDLSGYGAKVEVYDGVELNDKNQFKLTSSANSKIRVTQNQNIIFNSVFLDFSVSFWIRIPKYKNDGIQNYIHNEYTIINCMKNNSGWKISIRGNRIIWTLIDINGKTKSVFFEYNIREDISEYINRWFFVTITNNLNNAKIYINGKLESNTDIKDIREVIANGEIIFKLDGDIDRTQFIWMKYFSIFNTELSQSNIEERYKIQSYSEYLKDFWGNPLMYNKEYYMFNAGNKNSYIKLKKDSPVGEILTRSKYNQNSKYINYRDLYIGEKFIIRRKSNSQSINDDIVRKEDYIYLDFFNLNQEWRVYTYKYFKKEEEKLFLAPISDSDEFYNTIQIKEYDEQPTYSCQLLFKKDEESTDEIGLIGIHRFYESGIVFEEYKDYFCISKWYLKEVKRKPYNLKLGCNWQFIPKDEGWTE
- Kd: 51 µM
